Data reported in patent US20050064507.

Assays:
[1] = test system: T1, PARIS1 peptide EYLERRASRRRAV (SEQ ID NO:89)
T1 sequence: EYLERRASRRRAV

[2] = test system: T2, MAP3K14 peptide WKGKRRSKARKKRK (SEQ ID NO:100)
T2 sequence: WKGKRRSKARKKRK

[3] = test system: T3, peptide DLLGKKVSTKTLSEDD (SEQ ID NO:51)
T3 sequence: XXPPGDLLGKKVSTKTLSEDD

[4] = test system: T4, p164-RhoGEF peptide PRLIRRGSKKRPAR (SEQ ID NO:82)
T4 sequence: PRLIRRGSKKRPAR

[5] = test system: T5, CACNA1C peptide RGFLRSASLGRRASFHLE (SEQ ID NO:96)
T5 sequence: RGFLRSASLGRRASFHLE

[6] = test system: T6, peptide AQIVKRASLKRGKQ (SEQ ID NO:10)
T6 sequence: XXPPGAQIVKRASLKRGKQ

[7] = test system: T7, peptide ALRAPKPTLRYFTTERF (SEQ ID NO:64)
T7 sequence: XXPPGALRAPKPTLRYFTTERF

[8] = test system: T8, peptide IDYYKKTTNGRLPVK (SEQ ID NO:73)
T8 sequence: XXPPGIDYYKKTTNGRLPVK

[9] = test system: T9, AKAP12 peptide AGWRKKTSFRKPKED (SEQ ID NO:99)
T9 sequence: AGWRKKTSFRKPKED

[10] = test system: T10, peptide AVRDMRQTVAVGVIK (SEQ ID NO:62)
T10 sequence: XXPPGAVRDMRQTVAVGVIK

[11] = test system: T11, peptide DDMEHKTLKITDFG (SEQ ID NO:55)
T11 sequence: XXPPGDDMEHKTLKITDFG

[12] = test system: T12, Myt1 kinase peptide PPRTPGWHQLQPRRVSFRGE (SEQ ID NO:163)
T12 sequence: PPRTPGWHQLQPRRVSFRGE

[13] = test system: T13, cyclophilin G peptide TEEKSKKRKKKHRKNSRKHK (SEQ ID NO:165)
T13 sequence: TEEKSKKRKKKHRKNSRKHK

[14] = test system: T14, peptide QKKSRLRRRASQLKI (SEQ ID NO:9)
T14 sequence: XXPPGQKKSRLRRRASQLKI

[15] = test system: T15, GABA A receptor beta 2 peptide ERHVAQKKSRLRRRASQLKI (SEQ ID NO:142)
T15 sequence: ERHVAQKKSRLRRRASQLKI

[16] = test system: T16, peptide EGGDRRASGRRK (SEQ ID NO:34)
T16 sequence: XXPPGEGGDRRASGRRK

[17] = test system: T17, ANK1 peptide AQIVKRASLKRGKQ (SEQ ID NO:90)
T17 sequence: AQIVKRASLKRGKQ

[18] = test system: T18, peptide KNVVKLLSSRRTQDR (SEQ ID NO:57)
T18 sequence: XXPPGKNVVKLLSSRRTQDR

[19] = test system: T19, peptide VLAKKGTSKTPVPE (SEQ ID NO:44)
T19 sequence: XXPPGVLAKKGTSKTPVPE

[20] = test system: T20, peptide ENLRKVTTDKKSLAY (SEQ ID NO:54)
T20 sequence: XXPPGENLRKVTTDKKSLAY

[21] = test system: T21, PLEK peptide KFARKSTRRSIRLPE (SEQ ID NO:78)
T21 sequence: KFARKSTRRSIRLPE

[22] = test system: T22, peptide QPEGLRSLKKPDRKKR (SEQ ID NO:42)
T22 sequence: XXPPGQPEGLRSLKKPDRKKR

[23] = test system: T23, MLK3 peptide HVRRRRGTFKRSKLRARD (SEQ ID NO:76)
T23 sequence: HVRRRRGTFKRSKLRARD

[24] = test system: T24, peptide RGEGHKPSIAHRDFK (SEQ ID NO:68)
T24 sequence: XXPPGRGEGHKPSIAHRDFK

[25] = test system: T25, peptide HKHSPEKRGSERKEG (SEQ ID NO:52)
T25 sequence: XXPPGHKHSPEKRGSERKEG

[26] = test system: T26, CHRM1 peptide RKIPKRPGSVHRTPSRQ (SEQ ID NO:83)
T26 sequence: RKIPKRPGSVHRTPSRQ

[27] = test system: T27, PARIS1 peptide EYLERRASRRRAV (SEQ ID NO:138)
T27 sequence: EYLERRASRRRAV

[28] = test system: T28, dag kinase zeta peptide KKKKRASFKRKSSKKG (SEQ ID NO:114)
T28 sequence: KKKKRASFKRKSSKKG

[29] = test system: T29, ERN1 peptide KLAVGRHSFSRRSGV (SEQ ID NO:94)
T29 sequence: KLAVGRHSFSRRSGV

[30] = test system: T30, peptide RKIPKRPGSVHRTPSRQ (SEQ ID NO:7)
T30 sequence: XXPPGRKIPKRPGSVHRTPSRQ

[31] = test system: T31, fit1 peptide VQMTWSYPDEKNKRASVRRR (SEQ ID NO:158)
T31 sequence: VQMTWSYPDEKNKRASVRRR

[32] = test system: T32, beta adducin peptide PSKSPSKKKKKFRTPSFLKK (SEQ ID NO:137)
T32 sequence: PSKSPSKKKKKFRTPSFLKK

[33] = test system: T33, beta adducin peptide KKKFRTPSFLKKSKK (SEQ ID NO:135)
T33 sequence: KKKFRTPSFLKKSKK

[34] = test system: T34, peptide ENLRRVATDRRHLGH (SEQ ID NO:50)
T34 sequence: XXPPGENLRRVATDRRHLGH

[35] = test system: T35, peptide QQKIRKYTMRRLLQE (SEQ ID NO:33)
T35 sequence: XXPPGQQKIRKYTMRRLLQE

[36] = test system: T36, MacMARCKS peptide KKKFSFKKPFKLSGLSFKRN (SEQ ID NO:162)
T36 sequence: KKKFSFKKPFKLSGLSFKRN

[37] = test system: T37, MCM2 peptide VQRHRSMRKTFARYLSFRRD (SEQ ID NO:129)
T37 sequence: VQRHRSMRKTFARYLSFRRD

[38] = test system: T38, peptide PVNKRSKYTMMK (SEQ ID NO:59)
T38 sequence: XXPPGPVNKRSKYTMMK

[39] = test system: T39, peptide KKKKKRFSFKKSFKL (SEQ ID NO:12)
T39 sequence: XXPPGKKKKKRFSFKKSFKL

[40] = test system: T40, peptide AWVTVHEKKSSRKSEYL (SEQ ID NO:43)
T40 sequence: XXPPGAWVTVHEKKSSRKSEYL

[41] = test system: T41, peptide KKKKRASFKRKSSKKG (SEQ ID NO:2)
T41 sequence: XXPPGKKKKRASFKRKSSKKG

[42] = test system: T42, peptide FVHQASFKFGQGD (SEQ ID NO:41)
T42 sequence: XXPPGFVHQASFKFGQGD

## PKC-delta
[1]
  in vitro phosphorylation (% of best substrate): 20
[2]
  in vitro phosphorylation (% of best substrate): 22
[3]
  in vitro phosphorylation (% of best substrate): 2
[4]
  in vitro phosphorylation (% of best substrate): 40
[5]
  in vitro phosphorylation (% of best substrate): 18
[6]
  in vitro phosphorylation (% of best substrate): 32
[7]
  in vitro phosphorylation (% of best substrate): 1
[8]
  in vitro phosphorylation (% of best substrate): 0
[9]
  in vitro phosphorylation (% of best substrate): 17
[10]
  in vitro phosphorylation (% of best substrate): 1
[11]
  in vitro phosphorylation (% of best substrate): 2
[12]
  in vitro phosphorylation, 1 uM peptide (% of best substrate): 13
  in vitro phosphorylation, 10 uM peptide (% of best substrate): 21
[13]
  in vitro phosphorylation, 1 uM peptide (% of best substrate): 25
  in vitro phosphorylation, 10 uM peptide (% of best substrate): 19
[14]
  in vitro phosphorylation (% of best substrate): 34
[15]
  in vitro phosphorylation, 1 uM peptide (% of best substrate): 30
  in vitro phosphorylation, 10 uM peptide (% of best substrate): 36
[16]
  in vitro phosphorylation (% of best substrate): 5
[17]
  in vitro phosphorylation (% of best substrate): 32
[18]
  in vitro phosphorylation (% of best substrate): 2
[19]
  in vitro phosphorylation (% of best substrate): 2
[20]
  in vitro phosphorylation (% of best substrate): 2
[21]
  in vitro phosphorylation (% of best substrate): 52
[22]
  in vitro phosphorylation (% of best substrate): 3
[23]
  in vitro phosphorylation (% of best substrate): 100
[24]
  in vitro phosphorylation (% of best substrate): 1
[25]
  in vitro phosphorylation (% of best substrate): 2
[26]
  in vitro phosphorylation (% of best substrate): 38
[27]
  in vitro phosphorylation, 1 uM peptide (% of best substrate): 49
  in vitro phosphorylation, 10 uM peptide (% of best substrate): 28
[28]
  in vitro phosphorylation, 1 uM peptide (% of best substrate): 80
  in vitro phosphorylation, 10 uM peptide (% of best substrate): 100
[29]
  in vitro phosphorylation (% of best substrate): 12
[30]
  in vitro phosphorylation (% of best substrate): 38
[31]
  in vitro phosphorylation, 1 uM peptide (% of best substrate): 18
  in vitro phosphorylation, 10 uM peptide (% of best substrate): 33
[32]
  in vitro phosphorylation, 1 uM peptide (% of best substrate): 38
  in vitro phosphorylation, 10 uM peptide (% of best substrate): 16
[33]
  in vitro phosphorylation, 1 uM peptide (% of best substrate): 40
  in vitro phosphorylation, 10 uM peptide (% of best substrate): 25
[34]
  in vitro phosphorylation (% of best substrate): 2
[35]
  in vitro phosphorylation (% of best substrate): > 5
[36]
  in vitro phosphorylation, 1 uM peptide (% of best substrate): 21
  in vitro phosphorylation, 10 uM peptide (% of best substrate): 13
[37]
  in vitro phosphorylation, 1 uM peptide (% of best substrate): 32
  in vitro phosphorylation, 10 uM peptide (% of best substrate): 14
[38]
  in vitro phosphorylation (% of best substrate): 1
[39]
  in vitro phosphorylation (% of best substrate): 24
[40]
  in vitro phosphorylation (% of best substrate): 3
[41]
  in vitro phosphorylation (% of best substrate): 76
[42]
  in vitro phosphorylation (% of best substrate): 3
